In doi:10.1101/2024.03.19.585775, “Septin filament assembly assist the lateral organization of membranes” (bioRxiv, 2024):
Several values for one entry are separate records, joined by “and”; a condition that tells them apart may be missing. Identical values can stand only once.

Key:
[1] = biological target: the molecule itself; test: atomic force microscopy; octamers to filaments; 5 nM septin-GFP incubated overnight on 2.5% mol PI(4,5)P2 supported lipid bilayers; imaged at room temperature in 20 mM Tris-HCl pH 8, 2 mM MgCl2, 150 mM NaCl
[2] = biological target: the molecule itself; test: negative-stain transmission electron microscopy; octamers to filaments; 100 nM (legend; methods: 0.005 mg/ml) GFP-tagged septin hetero-octamers on lipid monolayers of 77.5% Egg-PC, 20% Liver-PI, 2.5% Brain-PI(4,5)P2; 20 mM Tris-HCl pH 8, 2 mM MgCl2, 400 µM GTP, 150 mM NaCl; overnight at 4 °C; 2% uranyl acetate

B1: wild-type septin-GFP hetero-octamer (Cdc11-Cdc12-Cdc3-Cdc10-Cdc10-Cdc3-Cdc12-Cdc11) (complex, S. cerevisiae)
chain 1: MSGIIDASSALRKRKHLKRGITFTVMIVGQSGSGRSTFINTLCGQQVVDTSTTILLPTDTSTEIDLQLREETVELEDDEGVKIQLNIIDTPGFGDSLDNSPSFEIISDYIRHQYDEILLEESRVRRNPRFKDGRVHCCLYLINPTGHGLKEIDVEFIRQLGSLVNIIPVISKSDSLTRDELKLNKKLIMEDIDRWNLPIYNFPFDEDEISDEDYETNMYLRTLLPFAIIGSNEVYEMGGDVGTIRGRKYPWGILDVEDSSISDFVILRNALLISHLHDLKNYTHEILYERYRTEALSGESVAAESIRPNLTKLNGSSSSSTTTRRNTNPFKQSNNINNDVLNPASDMHGQSTGENNETYMTREEQIRLEEERLKAFEERVQQELLLKRQELLQREKELREIEARLEKEAKIKQEE
chain 2: MSAATATAAPVPPPVGISNLPNQRYKIVNEEGGTFTVMLCGESGLGKTTFINTLFQTVLKRADGQQHRQEPIRKTVEIDITRALLEEKHFELRVNVIDTPGFGDNVNNNKAWQPLVDFIDDQHDSYMRQEQQPYRTKKFDLRVHAVLYFIRPTGHGLKPIDIETMKRLSTRANLIPVIAKADTLTAQELQQFKSRIRQVIEAQEIRIFTPPLDADSKEDAKSGSNPDSAAVEHARQLIEAMPFAIVGSEKKFDNGQGTQVVARKYPWGLVEIENDSHCDFRKLRALLLRTYLLDLISTTQEMHYETYRRLRLEGHENTGEGNEDFTLPAIAPARKLSHNPRYKEEENALKKYFTDQVKAEEQRFRQWEQNIVNERIRLNGDLEEIQGKVKKLEEQVKSLQVKKSHLK
chain 3: MSLKEEQVSIKQDPEQEERQHDQFNDVQIKQESQDHDGVDSQYTNGTQNDDSERFEAAESDVKVEPGLGMGITSSQSEKGQVLPDQPEIKFIRRQINGYVGFANLPKQWHRRSIKNGFSFNLLCVGPDGIGKTTLMKTLFNNDDIEANLVKDYEEELANDQEEEEGQGEGHENQSQEQRHKVKIKSYESVIEENGVKLNLNVIDTEGFGDFLNNDQKSWDPIIKEIDSRFDQYLDAENKINRHSINDKRIHACLYFIEPTGHYLKPLDLKFMQSVYEKCNLIPVIAKSDILTDEEILSFKKTIMNQLIQSNIELFKPPIYSNDDAENSHLSERLFSSLPYAVIGSNDIVENYSGNQVRGRSYPWGVIEVDNDNHSDFNLLKNLLIKQFMEELKERTSKILYENYRSSKLAKLGIKQDNSVFKEFDPISKQQEEKTLHEAKLAKLEIEMKTVFQQKVSEKEKKLQKSETELFARHKEMKEKLTKQLKALEDKKKQLELSINSASPNVNHSPVPTKKKGFLR
chain 4: MDPLSSVQPASYVGFDTITNQIEHRLLKKGFQFNIMVVGQSGLGKSTLINTLFASHLIDSATGDDISALPVTKTTEMKISTHTLVEDRVRLNINVIDTPGFGDFIDNSKAWEPIVKYIKEQHSQYLRKELTAQRERFITDTRVHAILYFLQPNGKELSRLDVEALKRLTEIANVIPVIGKSDTLTLDERTEFRELIQNEFEKYNFKIYPYDSEELTDEELELNRSVRSIIPFAVVGSENEIEINGETFRGRKTRWSAINVEDINQCDFVYLREFLIRTHLQDLIETTSYIHYEGFRARQLIALKENANSRSSAHMSSNAIQR
notes: Cdc11, septin of S. cerevisiae; Cdc12, septin of S. cerevisiae; Cdc3, septin of S. cerevisiae; Cdc10, septin of S. cerevisiae; Tag ends are read from the printed construct names MBP-Cdc12/(6xHis)Cdc3-GFP; The purified complex is named without MBP; also called GFP-tagged septin octamers; wild-type septin-GFP complexes; source: E. coli BL21 (DE3) Rosetta, co-expressed from two plasmids, purified …
With B1 the “stoichiometry N” value [1] was 5 octamers and the “stoichiometry N” value [2] was 2 octamers and 3 octamers.

B2: septin-GFP hetero-octamer containing ΔCTE-Cdc12 (deletion of the C-terminal extension of Cdc12, residues 339-407) (complex, S. cerevisiae)
chain 1: B1 chain 1
chain 2: MSAATATAAPVPPPVGISNLPNQRYKIVNEEGGTFTVMLCGESGLGKTTFINTLFQTVLKRADGQQHRQEPIRKTVEIDITRALLEEKHFELRVNVIDTPGFGDNVNNNKAWQPLVDFIDDQHDSYMRQEQQPYRTKKFDLRVHAVLYFIRPTGHGLKPIDIETMKRLSTRANLIPVIAKADTLTAQELQQFKSRIRQVIEAQEIRIFTPPLDADSKEDAKSGSNPDSAAVEHARQLIEAMPFAIVGSEKKFDNGQGTQVVARKYPWGLVEIENDSHCDFRKLRALLLRTYLLDLISTTQEMHYETYRRLRLEGHENTGEGNEDFTLPAIAPARKLSH
chain 3: B1 chain 3
chain 4: B1 chain 4
notes: Cdc11, septin of S. cerevisiae; Cdc12, septin of S. cerevisiae; Cdc3, septin of S. cerevisiae; Cdc10, septin of S. cerevisiae; also called ΔCTE-Cdc12 mutant; Cdc12 mutants; source: E. coli BL21 (DE3) Rosetta, co-expressed, purified (amylose resin, Ni-NTA-agarose), same protocol as wild type; not shown: GFP, C-terminal, kept; copies: 2 + 2 + 2 + 2
With B2 the “stoichiometry N” value [2] was roughly 4 octamers.

B3: septin-GFP hetero-octamer containing ΔAH-Cdc12 (C-terminal deletion of Cdc12 residues 390-407) (complex, S. cerevisiae)
chain 1: B1 chain 1
chain 2: MSAATATAAPVPPPVGISNLPNQRYKIVNEEGGTFTVMLCGESGLGKTTFINTLFQTVLKRADGQQHRQEPIRKTVEIDITRALLEEKHFELRVNVIDTPGFGDNVNNNKAWQPLVDFIDDQHDSYMRQEQQPYRTKKFDLRVHAVLYFIRPTGHGLKPIDIETMKRLSTRANLIPVIAKADTLTAQELQQFKSRIRQVIEAQEIRIFTPPLDADSKEDAKSGSNPDSAAVEHARQLIEAMPFAIVGSEKKFDNGQGTQVVARKYPWGLVEIENDSHCDFRKLRALLLRTYLLDLISTTQEMHYETYRRLRLEGHENTGEGNEDFTLPAIAPARKLSHNPRYKEEENALKKYFTDQVKAEEQRFRQWEQNIVNERIRLNGDLEEIQGKV
chain 3: B1 chain 3
chain 4: B1 chain 4
notes: Cdc11, septin of S. cerevisiae; Cdc12, septin of S. cerevisiae; Cdc3, septin of S. cerevisiae; Cdc10, septin of S. cerevisiae; also called ΔAH-Cdc12 mutant; ΔAH mutant; source: E. coli BL21 (DE3) Rosetta, co-expressed, purified (amylose resin, Ni-NTA-agarose), same protocol as wild type; not shown: GFP, C-terminal, kept; copies: 2 + 2 + 2 + 2
For B3, the “stoichiometry N” value [2] was roughly 4 octamers.
